6 molecules from paper PMC4661804, “Homeodomain Protein Scr Regulates the Transcription of Genes Involved in Juvenile Hormone Biosynthesis in the Silkworm” can be followed below.

The target of data set [1] is T1, Scr (Sex combs reduced) (Bombyx mori, UniProt Q9XZR4 1-356). The data set can be described thus: competition; unlabeled mutant, 5-50x, against labeled N5; EMSA: 0.1-1 ug protein, 5 uM labeled probe, 15 uL with 3 uL 5x binding buffer (Beyotime, composition not given), 25 C, 20 + 20 min; 5% PAGE in 1x TBE (45 mM Tris-borate, 1 mM EDTA, pH 8.3). The settings on record: protein: recombinant; tags: His-SUMO (N-terminal, pCold-SUMO); label: none; blunt. A general note: Mobility shift assays separate free from complexed probe on a gel.
T1 sequence (Q9XZR4 entry or part of it): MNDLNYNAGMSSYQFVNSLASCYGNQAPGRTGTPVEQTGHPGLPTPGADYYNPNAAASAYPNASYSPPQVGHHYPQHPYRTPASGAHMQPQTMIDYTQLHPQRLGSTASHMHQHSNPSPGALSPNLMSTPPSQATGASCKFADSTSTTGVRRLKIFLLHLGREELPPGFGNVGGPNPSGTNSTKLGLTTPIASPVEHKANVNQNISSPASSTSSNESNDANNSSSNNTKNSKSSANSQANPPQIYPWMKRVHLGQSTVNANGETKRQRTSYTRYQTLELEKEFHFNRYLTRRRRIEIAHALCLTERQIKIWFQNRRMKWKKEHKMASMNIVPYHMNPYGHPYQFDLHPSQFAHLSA

The target of data set [2] is T1, Scr (Sex combs reduced). The data set can be described thus: EMSA; dose-dependent; competed by unlabeled probe; EMSA: 0.1-1 ug protein, 5 uM labeled probe, 15 uL with 3 uL 5x binding buffer (Beyotime, composition not given), 25 C, 20 + 20 min; 5% PAGE in 1x TBE (45 mM Tris-borate, 1 mM EDTA, pH 8.3). The following applies: protein: recombinant; tags: His-SUMO (N-terminal, pCold-SUMO); label: 5'-Cy3; blunt.

For data set [3], the target named is T1, Scr (Sex combs reduced). The data set can be described thus: competition; unlabeled mutant, 5-50x, against labeled N1; EMSA: 0.1-1 ug protein, 5 uM labeled probe, 15 uL with 3 uL 5x binding buffer (Beyotime, composition not given), 25 C, 20 + 20 min; 5% PAGE in 1x TBE (45 mM Tris-borate, 1 mM EDTA, pH 8.3). The settings on record: protein: recombinant; tags: His-SUMO (N-terminal, pCold-SUMO); label: none; blunt.

The target in data set [4] is T1, Scr (Sex combs reduced). The data set can be described thus: competition; unlabeled mutant, 5-50x, against labeled N3; EMSA: 0.1-1 ug protein, 5 uM labeled probe, 15 uL with 3 uL 5x binding buffer (Beyotime, composition not given), 25 C, 20 + 20 min; 5% PAGE in 1x TBE (45 mM Tris-borate, 1 mM EDTA, pH 8.3). The following applies: protein: recombinant; tags: His-SUMO (N-terminal, pCold-SUMO); label: none; blunt.

B1: JHAMT mutant probe (dsDNA)
DNA 1: ATGGCTAATTTTTTCCCCGAATTAAAAGAAC
DNA 2: GTTCTTTTAATTCGGGGAAAAAATTAGCCAT
Regarding B1, the binding result in data set [1] was “no binding”.

B2: FPPS2 probe (dsDNA)
DNA 1: TCGCAAGTGAAAACAATTAATTCGCAATCGGTTCA
DNA 2: TGAACCGATTGCGAATTAATTGTTTTCACTTGCGA
Consider B2, for which, in data set [2], the binding result is given as “binds”.

B3: JHAMT probe (dsDNA)
DNA 1: ATGGCTAATTTTTTTAATGAATTAAAAGAAC
DNA 2: GTTCTTTTAATTCATTAAAAAAATTAGCCAT
Regarding B3, in data set [2], the binding result is on record as “binds”.

B4: Allatotropin mutant probe (dsDNA)
DNA 1: CCATAGGTTTGTAGACCCCCAGCGTAGCACGCTGTA
DNA 2: TACAGCGTGCTACGCTGGGGGTCTACAAACCTATGG
For the molecule B4, in data set [3], the binding result is reported as “no binding”.

B5: Allatotropin probe (dsDNA)
DNA 1: CCATAGGTTTGTAGATAATTAGCGTAGCACGCTGTA
DNA 2: TACAGCGTGCTACGCTAATTATCTACAAACCTATGG
With B5, the binding result in data set [2] was “binds”.

B6: FPPS2 mutant probe (dsDNA)
DNA 1: TCGCAAGTGAAAACACCCCCTTCGCAATCGGTTCA
DNA 2: TGAACCGATTGCGAAGGGGGTGTTTTCACTTGCGA
With B6, the binding result in data set [4] is given as “no binding”.
